Measurements published in PMC4990988, “Defective recognition of LC3B by mutant SQSTM1/p62 implicates impairment of autophagy as a pathogenic mechanism in ALS-FTLD” (Autophagy, 2016).

Molecular target: LC3B (microtubule-associated protein 1 light chain 3 β) (human, UniProt Q9GZQ8 1-120)
Experiment: ITC; LIR peptide stock (350 µM) injected into LC3B in the cell, 298 K, 25 mM phosphate buffer, 150 mM NaCl, pH 7.5; one-site binding model
Conditions: both partners purified

Row | Binder | Kd [µM]
1 | SGGDDDWTHLSSKEVDPSTG (source: synthetic peptide (PeptideSynthetics, purity > 98%)) [WT LIR peptide (residues 332 to 351 of human SQSTM1)] | 3.2 ± 1.1
2 | SGGDDDWTHVSSKEVDPSTG (SQSTM1/p62, human, residues 332 to 351 with the ALS-associated L341V mutation; also called L341V-mutant LIR; mutant LIR; source: synthetic peptide (PeptideSynthetics, purity > 98%)) [LIR (L341V) peptide (residues 332 to 351 of human SQSTM1 with L341V)] | 10.9 ± 1.1
